The target in the experiment is T1, COL6A3 (peptide named COL6A3-642) peptide on HLA-A*02:01 (human).
T1 peptide: FLLDGSANV
The experiment in a line: multimer staining.

B1: COL6A3-642 C4 TCR (TRAV1-2*01F-TRBV9*01F) (TCR, V domains shown)
Valpha: GQNIDQPTEMTATEGAIVQINCTYQTSGFNGLFWYQQHAGEAPTFLSYNVLDGLEEKGRFSSFLSRSKGYSYLLLKELQMKDSASYLCAVRADRGSTLGRLYFGRGTQLTVWP
Vbeta: DSGVTQTPKHLITATGQRVTLRCSPRSGDLSVYWYQQSLDQGLQFLIQYYNGEERAKGNILERFSAQQFPDLHSELNLSSLELGDSALYFCASSVDGGASGEQFFGPGTRLTVL
In the case of B1, the binding result was “recognises”.
